Test results taken from doi:10.1101/620385.

Key:
[1] = target: nucleosome core particle with histone H3 phosphorylated at Thr3 (human | Xenopus laevis) (UniProt P84233); assay: SPR
[2] = target: unmodified nucleosome core particle (human | Xenopus laevis); assay: SPR

| fold reduction in binding affinity against CPC LM [1] [fold] | fold reduction in binding affinity against CPC LM [2] [fold] | Substance | Kd [1] [nM] | Kd [2] [nM] |
| --- | --- | --- | --- | --- |
|  |  | CPC localisation module (Borealin-Survivin-INCENP 1-58) (from UniProt Q53HL2;O15392;Q9NQS7) (complex) | 103 | 295 |
| 3 | 3 | CPC localisation module containing Borealin 10-end (from UniProt Q53HL2;O15392;Q9NQS7) (complex) |  |  |
